Target: DTX3L RD (RING-DTC) (Homo sapiens, UniProt Q8TDB6 544-740)
Test: EMSA; 5 mM Mg2+; protein 0.5, 1, 2 uM; RNA 0.5 uM; EMSA: 20 mM HEPES pH 7.5, 50 mM KCl, 5 mM MgCl2, 1 mM DTT, on ice 0.5 h, 6% native PAGE
Settings: protein: recombinant; label: 3' Cy3; single strand

DTX3L RD (RING-DTC), sequence (Q8TDB6 544-740): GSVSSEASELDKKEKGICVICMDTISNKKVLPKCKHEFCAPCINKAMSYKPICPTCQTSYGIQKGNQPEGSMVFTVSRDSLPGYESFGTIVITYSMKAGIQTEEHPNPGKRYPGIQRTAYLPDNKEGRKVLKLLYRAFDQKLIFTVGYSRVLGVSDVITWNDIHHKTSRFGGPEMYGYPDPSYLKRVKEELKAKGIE

B1: E35_5'P_RNA_3Cy3 (ssRNA)
RNA: GUGGCGCGGAGACUUAGAGAAAUUGUGAUCAGGAA
modifications: 5' phosphate
- binding result: no binding
